Measured values from patent US20200317768A1 (published 2020).

Key:
[1] = target: T1, cynomolgus monkey FcγRIIa3 extracellular domain with C-terminal His-tag (cynomolgus monkey); assay: SPR (Biacore); KD of SG1 divided by KD of the variant for this FcgR;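 note: relative to parent M103205H795-SG1 carrying the SG1 human heavy chain constant region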
T1 construct: Expressed in FreeStyle 293 cells and purified; also called cyno FcγRIIa3; cynoFcgRIIa3; not shown: C-terminal His-tag
T1 chain: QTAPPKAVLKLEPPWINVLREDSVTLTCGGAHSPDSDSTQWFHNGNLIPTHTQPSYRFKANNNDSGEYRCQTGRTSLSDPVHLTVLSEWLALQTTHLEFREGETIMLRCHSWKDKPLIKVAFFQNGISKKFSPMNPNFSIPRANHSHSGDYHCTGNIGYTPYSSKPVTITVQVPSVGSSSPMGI

[2] = target: T2, human FcγRIIb extracellular domain with C-terminal His-tag (human, UniProt P31994 43-217); assay: SPR (Biacore), antibody captured on chip, FcgR extracellular domain as analyte, 25 C
T2 construct: Expressed in FreeStyle 293 cells and purified; also called humanFcgRIIb; not shown: C-terminal His-tag
T2 sequence: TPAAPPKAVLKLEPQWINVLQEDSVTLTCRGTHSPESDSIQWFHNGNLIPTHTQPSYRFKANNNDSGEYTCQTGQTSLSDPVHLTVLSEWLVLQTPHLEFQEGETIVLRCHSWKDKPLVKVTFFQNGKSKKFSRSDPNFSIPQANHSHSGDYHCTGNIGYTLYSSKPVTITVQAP

[3] = target: T1, cynomolgus monkey FcγRIIa3 …; assay: as above
[4] = target: T3, human FcγRIIIaV extracellular domain with C-terminal His-tag (human, UniProt P08637 17-208); assay: as above
T3 construct: Expressed in FreeStyle 293 cells and purified; also called FcgRIIIaV; not shown: C-terminal His-tag
T3 sequence (P08637 17-208 F176V): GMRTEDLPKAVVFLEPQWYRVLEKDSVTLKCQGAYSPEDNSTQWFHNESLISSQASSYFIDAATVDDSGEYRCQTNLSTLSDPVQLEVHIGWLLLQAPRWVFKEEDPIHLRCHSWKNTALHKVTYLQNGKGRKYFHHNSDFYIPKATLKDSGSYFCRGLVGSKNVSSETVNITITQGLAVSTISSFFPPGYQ

[5] = target: T4, human FcγRIIaH extracellular domain with C-terminal His-tag (human, UniProt P12318 34-217); assay: as above
T4 construct: Expressed in FreeStyle 293 cells and purified; also called human FcγRIIa (type H); FcgRIIaH; not shown: C-terminal His-tag
T4 sequence: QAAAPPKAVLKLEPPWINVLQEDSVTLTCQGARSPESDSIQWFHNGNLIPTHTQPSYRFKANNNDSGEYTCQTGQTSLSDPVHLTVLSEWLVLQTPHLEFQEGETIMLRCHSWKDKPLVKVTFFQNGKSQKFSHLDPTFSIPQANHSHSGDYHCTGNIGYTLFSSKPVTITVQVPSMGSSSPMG

[6] = target: T5, cynomolgus monkey FcγRIIa1 extracellular domain with C-terminal His-tag (cynomolgus monkey); assay: as above
T5 construct: Expressed in FreeStyle 293 cells and purified; also called cyno FcγRIIa1; cynoFcgRIIa1; not shown: C-terminal His-tag
T5 chain: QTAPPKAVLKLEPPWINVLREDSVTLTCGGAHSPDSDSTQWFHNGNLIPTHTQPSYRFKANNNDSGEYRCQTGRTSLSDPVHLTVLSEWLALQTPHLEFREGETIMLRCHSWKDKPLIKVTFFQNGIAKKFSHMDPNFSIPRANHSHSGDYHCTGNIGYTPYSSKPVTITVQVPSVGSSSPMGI

[7] = target: T6, cynomolgus monkey FcγRIIIaS extracellular domain with C-terminal His-tag (cynomolgus monkey, UniProt Q8SPW2 21-206 at identity 1.00)); assay: as above
T6 construct: Expressed in FreeStyle 293 cells and purified; also called cyno FcγRIIIaS; cynoFcγRIIIaS; not shown: C-terminal His-tag
T6 chain: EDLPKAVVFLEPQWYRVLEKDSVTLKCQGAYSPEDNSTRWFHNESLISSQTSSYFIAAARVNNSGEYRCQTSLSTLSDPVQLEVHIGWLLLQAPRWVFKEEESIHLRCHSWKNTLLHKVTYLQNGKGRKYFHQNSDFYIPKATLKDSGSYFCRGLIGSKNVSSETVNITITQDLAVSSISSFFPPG

[8] = target: T7, cynomolgus monkey FcγRIIa2 extracellular domain with C-terminal His-tag (cynomolgus monkey); assay: as above
T7 construct: Expressed in FreeStyle 293 cells and purified; also called cyno FcγRIIa2; cynoFcgRIIa2; not shown: C-terminal His-tag
T7 chain: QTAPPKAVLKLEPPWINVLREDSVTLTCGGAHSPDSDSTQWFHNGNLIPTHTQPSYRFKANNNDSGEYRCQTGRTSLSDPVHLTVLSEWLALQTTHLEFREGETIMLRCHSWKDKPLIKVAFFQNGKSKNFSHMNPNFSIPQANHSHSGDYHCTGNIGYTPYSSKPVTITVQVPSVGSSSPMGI

[9] = target: T8, cynomolgus monkey FcγRIIb extracellular domain with C-terminal His-tag (cynomolgus monkey); assay: as above
T8 construct: Expressed in FreeStyle 293 cells and purified; also called cyno FcγRIIb; cynoFcγRIIb; not shown: C-terminal His-tag
T8 chain: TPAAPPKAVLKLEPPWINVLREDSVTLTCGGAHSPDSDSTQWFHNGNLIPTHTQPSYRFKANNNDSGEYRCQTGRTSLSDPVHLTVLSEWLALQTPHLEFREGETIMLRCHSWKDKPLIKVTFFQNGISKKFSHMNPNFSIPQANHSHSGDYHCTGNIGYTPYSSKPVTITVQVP

Binder	KD fold (SG1 = 1) [1] [fold]	Kd [2] [nM]	Kd [3] [nM]	Kd [4] [nM]	Kd [5] [nM]	Kd [6] [nM]	Kd [7] [nM]	Kd [8] [nM]	Kd [9] [nM]
M103205H795-MY172 / M103202L889-SK1 (antibody, human IgG1, kappa, Position 396 variant derived from MY052, expressed with M103202L889-SK1 as light chain) heavy: QVTLKESGPVLVKPTETLTLTCTVSGIDLSHDDISWVRQAPGKGLEWVGIISYAGSTYYASWAKGRLTISKDTSKNQVVLTMTNMDPVDTATYYCARGVPAYSHGGDLWGQGTLVTVSSASTKGPSVFPLAPSSKSTSGGTAALGCLVKDYFPEPVTVSWNSGALTSGVHTFPAVLQSSGLYSLSSVVTVPSSSLGTQTYICNVNHKPSNTKVDKKVEPKSCDKTHTCPPCPAPELLNGPSVFLFPPKPKDTLMISRTPEVTCVVVDVSEEDPEVKFNWYVDGVEVHNAKTKPREEQYNSTYRVVSVLTVLHQDWLNGKEYKCKVSNKALPAPIEKTISKAKGQPREPQVYTLPPSREEMTKNQVSLTCLVKGFYPSDIAVEWESNGQPENNYKTTPGVLDSDGSFFLYSKLTVDKSRWQQGNVFSCSVMHEALHNHYTQKSLSLSP light: DIVMTQSPATLSLSPGERATLSCTSSQSVYHANWLSWFQQKPGQPPKLLIYWASTLAYGVPSRFSGSGSGTDFTLTISSLQPEDAATYYCAGGYGGGRYAFGQGTKVEIKRTVAAPSVFIFPPSDEQLKSGTASVVCLLNNFYPREAKVQWKVDNALQSGNSQESVTEQDSKDSTYSLSSTLTLSKADYEKHKVYACEVTHQGLSSPVTKSFNRGEC	1.5	1800	11000	6500	17000	2700	3300	2300	1200
M103205H795-MY173 / M103202L889-SK1 (antibody, human IgG1, kappa, Position 396 variant derived from MY052, expressed with M103202L889-SK1 as light chain) heavy: QVTLKESGPVLVKPTETLTLTCTVSGIDLSHDDISWVRQAPGKGLEWVGIISYAGSTYYASWAKGRLTISKDTSKNQVVLTMTNMDPVDTATYYCARGVPAYSHGGDLWGQGTLVTVSSASTKGPSVFPLAPSSKSTSGGTAALGCLVKDYFPEPVTVSWNSGALTSGVHTFPAVLQSSGLYSLSSVVTVPSSSLGTQTYICNVNHKPSNTKVDKKVEPKSCDKTHTCPPCPAPELLNGPSVFLFPPKPKDTLMISRTPEVTCVVVDVSEEDPEVKFNWYVDGVEVHNAKTKPREEQYNSTYRVVSVLTVLHQDWLNGKEYKCKVSNKALPAPIEKTISKAKGQPREPQVYTLPPSREEMTKNQVSLTCLVKGFYPSDIAVEWESNGQPENNYKTTPHVLDSDGSFFLYSKLTVDKSRWQQGNVFSCSVMHEALHNHYTQKSLSLSP light: DIVMTQSPATLSLSPGERATLSCTSSQSVYHANWLSWFQQKPGQPPKLLIYWASTLAYGVPSRFSGSGSGTDFTLTISSLQPEDAATYYCAGGYGGGRYAFGQGTKVEIKRTVAAPSVFIFPPSDEQLKSGTASVVCLLNNFYPREAKVQWKVDNALQSGNSQESVTEQDSKDSTYSLSSTLTLSKADYEKHKVYACEVTHQGLSSPVTKSFNRGEC	2.1	10000	3000	7000	1000	1700	3100	1800	780
M103205H795-MY174 / M103202L889-SK1 (antibody, human IgG1, kappa, Position 396 variant derived from MY052, expressed with M103202L889-SK1 as light chain) heavy: QVTLKESGPVLVKPTETLTLTCTVSGIDLSHDDISWVRQAPGKGLEWVGIISYAGSTYYASWAKGRLTISKDTSKNQVVLTMTNMDPVDTATYYCARGVPAYSHGGDLWGQGTLVTVSSASTKGPSVFPLAPSSKSTSGGTAALGCLVKDYFPEPVTVSWNSGALTSGVHTFPAVLQSSGLYSLSSVVTVPSSSLGTQTYICNVNHKPSNTKVDKKVEPKSCDKTHTCPPCPAPELLNGPSVFLFPPKPKDTLMISRTPEVTCVVVDVSEEDPEVKFNWYVDGVEVHNAKTKPREEQYNSTYRVVSVLTVLHQDWLNGKEYKCKVSNKALPAPIEKTISKAKGQPREPQVYTLPPSREEMTKNQVSLTCLVKGFYPSDIAVEWESNGQPENNYKTTPIVLDSDGSFFLYSKLTVDKSRWQQGNVFSCSVMHEALHNHYTQKSLSLSP light: DIVMTQSPATLSLSPGERATLSCTSSQSVYHANWLSWFQQKPGQPPKLLIYWASTLAYGVPSRFSGSGSGTDFTLTISSLQPEDAATYYCAGGYGGGRYAFGQGTKVEIKRTVAAPSVFIFPPSDEQLKSGTASVVCLLNNFYPREAKVQWKVDNALQSGNSQESVTEQDSKDSTYSLSSTLTLSKADYEKHKVYACEVTHQGLSSPVTKSFNRGEC	2.7	850	6400	6800	810	1500	2500	1600	650
M103205H795-MY175 / M103202L889-SK1 (antibody, human IgG1, kappa, Position 396 variant derived from MY052, expressed with M103202L889-SK1 as light chain) heavy: QVTLKESGPVLVKPTETLTLTCTVSGIDLSHDDISWVRQAPGKGLEWVGIISYAGSTYYASWAKGRLTISKDTSKNQVVLTMTNMDPVDTATYYCARGVPAYSHGGDLWGQGTLVTVSSASTKGPSVFPLAPSSKSTSGGTAALGCLVKDYFPEPVTVSWNSGALTSGVHTFPAVLQSSGLYSLSSVVTVPSSSLGTQTYICNVNHKPSNTKVDKKVEPKSCDKTHTCPPCPAPELLNGPSVFLFPPKPKDTLMISRTPEVTCVVVDVSEEDPEVKFNWYVDGVEVHNAKTKPREEQYNSTYRVVSVLTVLHQDWLNGKEYKCKVSNKALPAPIEKTISKAKGQPREPQVYTLPPSREEMTKNQVSLTCLVKGFYPSDIAVEWESNGQPENNYKTTPKVLDSDGSFFLYSKLTVDKSRWQQGNVFSCSVMHEALHNHYTQKSLSLSP light: DIVMTQSPATLSLSPGERATLSCTSSQSVYHANWLSWFQQKPGQPPKLLIYWASTLAYGVPSRFSGSGSGTDFTLTISSLQPEDAATYYCAGGYGGGRYAFGQGTKVEIKRTVAAPSVFIFPPSDEQLKSGTASVVCLLNNFYPREAKVQWKVDNALQSGNSQESVTEQDSKDSTYSLSSTLTLSKADYEKHKVYACEVTHQGLSSPVTKSFNRGEC	2.5	830	7500	7600	860	1400	2600	1500	710
